# Results taken from US20100143942A1, “METHOD OF DETECTION” (LEIDEN UNIVERSITY, priority 2006, published 2010).
# Like-named read-outs stand apart in the source and are kept apart here.
# Experiments:
# Ty = target: T1, Ty (Streptomyces antibioticus, UniProt P07524); assay: Dye emission switching ratio (Fred/Foxy) of N-terminally labelled Ty; conditions: dye attached to Ty; excitation at 280 nm; Trp line = native protein
# T1 construct: The S.a; Ty is a monomeric protein with a molecular mass of ˜30 kDa
# From the text: (§1) To illustrate the present invention two type-3 copper proteins have been selected: Hc from the arthropod Carcinus aestuarii (Mediterranean crab) and Ty from the soil bacterium Streptomyces antibioticus. The C.a. Hc consists of a mixture of hexamers and dodecamers, which are self-assembled from three different types of subunits. The S.a. Ty is a monomeric protein with a molecular mass of ˜30 kDa. The structure of Ty from S. castaneoglobisporus has recently been solved. S.a. Ty has 91% sequence similarity (82% indentity) with S.c. Ty and can be easily modelled on the S.c. structure. […] Dissociation can be achieved by incubating the Hc at high pH and in the absence of divalent metal ions. Both conditions were met in our experiments and we will assume, therefore, that the Hc used in this study was present in the form of monomers. The data on O2 binding (vide infra) confirms this assumption.
# Both Hc and Ty were labelled at their N-terminus with each of the five dyes. […] The peak around 330 nm is a second-order artefact. In a solution containing dye and protein separately (not linked) this peak (280 nm) was missing. […]
# In all cases, an increase in label emission was observed after deoxygenating the sample (FIG. 4A). […] The Cy3 fluorescence is specific for the labelled protein, while the Trp emission derives mainly (>95%) from unlabelled Hc. […]
# [1] = literature [14]; read-out: literature dissociation constant (O2); cited from earlier work
# [2] = literature [15]; read-out: literature Kd (iodide); cited from earlier work
# [3] = literature [12], [13]; cited from earlier work
# [4] = Titration of a mixture of Hc-Alexa350 and Ty-Cy5 with iodide in air-saturated solution, emission upon excitation at 280 nm; type: binding; conditions: fitted to Eq. 1, read-out: apparent Kd (iodide)
# Protocol: The specificity of the method is illustrated by the data presented in FIG. 7, which show a titration of a mixture of Hc-Alexa350 and Ty-Cy5 with iodide in an air-saturated solution. […] Hc. […] The small fluorescence decrease of the latter can be ascribed to the aspecific collisional quenching of the label and/or the Trp fluorescence by iodide. […] The difference between the experimental Kd and the literature value of 3.0±0.3 mM [15] may be related to its dependence on the [O2] in the sample, which may have varied between the two experiments.
# [5] = O2 binding curve of labelled Ty; [O2] calculated from Hc-Atto390 fluorescence in the same sample during deoxygenation; set-up: species or system Streptomyces antibioticus; conditions: label fluorescence vs [O2] determined from Hc-Atto390; read-out: Kd (O2 binding curve fitted to Hill equation)
# From the text: as §1, with “Both conditions were met in our experiments and we will assume, therefore, that the Hc used in this study was present in the form of monomers. The data on O2 binding (vide infra) confirms this assumption.” left out
# The fact that the described method works for labels showing widely different emission wavelengths opens the possibility to observe two or more constructs in the same sample using a single excitation wavelength. […] The circles refer to the oxygen concentration (right scale) as calculated from the fluorescence of the Hc-Atto390. The left scale refers to the Ty-Atto655 fluorescence. […]
# The [O2] at each time-point in the trace was determined using the response of Hc-Atto390 fluorescence with Eq. 1 and the oxygen dissociation constant and the Hill coefficient determined in an independent O2 titration (FIG. 6A). The Ty-Atto655 fluorescence was then plotted as a function of the determined [O2] at each time-point (FIG. 6B). […]
# T1 sequence (P07524 whole entry): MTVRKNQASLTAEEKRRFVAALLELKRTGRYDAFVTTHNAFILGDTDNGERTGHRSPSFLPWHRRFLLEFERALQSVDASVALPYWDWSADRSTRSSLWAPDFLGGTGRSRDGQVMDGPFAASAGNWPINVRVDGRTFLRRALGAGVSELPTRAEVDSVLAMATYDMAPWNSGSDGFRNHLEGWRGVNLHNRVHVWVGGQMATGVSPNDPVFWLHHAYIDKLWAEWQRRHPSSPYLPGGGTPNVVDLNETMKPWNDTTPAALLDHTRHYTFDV
molecule,measurement,setting,value
Cc1cc(=O)oc2cc3c(cc12)C(C)CC(C)(C)N3CCCC(=O)O (stereo not shown) [Atto390],SR Tyr (switching ratio Fred/Foxy),Ty,2.2
CCN1C(=CC=CC2=[N+](CCCCCC(=O)O)c3ccc(S(=O)(=O)O)cc3C2(C)C)C(C)(C)c2cc(S(=O)(=O)[O-])ccc21 [Cy3],SR Tyr (switching ratio Fred/Foxy),Ty,2.8
"Ty: Ty from the soil bacterium Streptomyces antibioticus, monomeric type-3 copper protein of ~30 kDa (protein, UniProt P07524 2-273, looked up) Tyrosinase: TVRKNQASLTAEEKRRFVAALLELKRTGRYDAFVTTHNAFILGDTDNGERTGHRSPSFLPWHRRFLLEFERALQSVDASVALPYWDWSADRSTRSSLWAPDFLGGTGRSRDGQVMDGPFAASAGNWPINVRVDGRTFLRRALGAGVSELPTRAEVDSVLAMATYDMAPWNSGSDGFRNHLEGWRGVNLHNRVHVWVGGQMATGVSPNDPVFWLHHAYIDKLWAEWQRRHPSSPYLPGGGTPNVVDLNETMKPWNDTTPAALLDHTRHYTFDV",Kd,[1],16 µM
same,Kd,[2],3000 ± 300 µM
same,O2 dissociation rate,[3],~300 s⁻¹
"Ty-Cy5: Streptomyces antibioticus tyrosinase labelled at its N-terminus with the dye Cy5 (conjugate, UniProt P07524 2-273, looked up, N-terminal Cy5 label) Tyrosinase: TVRKNQASLTAEEKRRFVAALLELKRTGRYDAFVTTHNAFILGDTDNGERTGHRSPSFLPWHRRFLLEFERALQSVDASVALPYWDWSADRSTRSSLWAPDFLGGTGRSRDGQVMDGPFAASAGNWPINVRVDGRTFLRRALGAGVSELPTRAEVDSVLAMATYDMAPWNSGSDGFRNHLEGWRGVNLHNRVHVWVGGQMATGVSPNDPVFWLHHAYIDKLWAEWQRRHPSSPYLPGGGTPNVVDLNETMKPWNDTTPAALLDHTRHYTFDV",Kd,[4],4400 ± 300 µM
same,Kd,[5],15 µM
